From patent publication US20080076129A1, “Method of Detecting an Increased Susceptibility to Breast Cancer” (priority 2000, published 2008)

T1: CYP1B1 (Homo sapiens, UniProt Q16678, L432V)
T1 construct: made in house; host or cells: Escherichia coli DH5αF′Iq
T1 sequence (Q16678 26-543 L432V): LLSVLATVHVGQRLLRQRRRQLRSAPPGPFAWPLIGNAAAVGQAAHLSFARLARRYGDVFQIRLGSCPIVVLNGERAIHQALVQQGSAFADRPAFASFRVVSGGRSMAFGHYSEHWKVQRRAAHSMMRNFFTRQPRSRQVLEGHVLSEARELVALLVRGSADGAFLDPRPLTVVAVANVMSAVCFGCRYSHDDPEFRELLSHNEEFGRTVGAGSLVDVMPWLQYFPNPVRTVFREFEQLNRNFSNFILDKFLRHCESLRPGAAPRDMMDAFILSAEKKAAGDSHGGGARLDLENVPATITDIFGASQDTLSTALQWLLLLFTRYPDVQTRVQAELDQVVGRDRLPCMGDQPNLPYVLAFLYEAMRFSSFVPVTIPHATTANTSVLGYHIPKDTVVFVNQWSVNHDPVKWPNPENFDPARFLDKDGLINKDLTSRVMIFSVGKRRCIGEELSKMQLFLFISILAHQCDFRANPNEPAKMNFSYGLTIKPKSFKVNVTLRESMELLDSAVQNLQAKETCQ


Legend:
[1] = tested on: DNA; details: cited from earlier work
[2] = tested on: CYP1B1; assay: Assay of CYP1B1 E2 hydroxylation activity; format: biochemical, human; details: for 2-OH-Estradiol kcat: E2 2-hydroxylation; for 4-OH-Estradiol kcat: E2 4-hydroxylation; for 16a-OH-Esrradiol kcat: E2 16α-hydroxylation
Procedure: (§1) Assay of CYP1B1 E2 Hydroxylation Activity. Purified CYP1B1 (200 pmol) was reconstituted with a 2-fold molar amount of recombinant rat NADPH-P450 reductase (400 pmol), purified as previously described, and 60 μg of L-α-dilauroyl-sn-glycero-3-phosphocholine in the presence of sodium cholate (0.005%, w/v) in 0.4 ml of 100 mM potassium phosphate buffer, pH 7.4, containing varying concentrations of E2 (2, 3, 6, 9, 12, 15, 20, 40, 60, 80, and 100 μM) and 1 mM ascorbate. An NADPH-generating system consisting of 5 mM glucose 6-phosphate and 0.5 U of glucose-6-phosphate dehydrogenase/ml was added and reactions initiated by adding NADP+ to a final concentration of 0.5 mM. Reactions proceeded for 10 min at 37° C. with gentle shaking and then were terminated by addition of 2 ml CH2Cl2.
(§2) Extraction and Gas Chromatography/Mass Spectrometry Analysis of E2 and Metabolites. A deuterated internal standard (100 μl of 8 mg/liter E2-2, 4, 16, 16-d4 in methanol; CDN Isotopes, Pointe-Claire, Quebec) was added and all steroids extracted into CH2Cl2 by vortex mixing for 30 s. 1.5 ml of the CH2Cl2 fraction was evaporated to dryness under air and volatile TMS derivatives prepared by heating the residue with 100 μl of 50% NO-bis(trimethylsilyl)trifluoroacetamide/1% trimethyl chlorosilane in acetonitrile at 56° C. for 30 min. The TMS derivatives of E2 and its metabolites were separated by gas chromatography (H-P 5890, Hewlett-Packard, Wilmington, Del.) on a 5% phenyl methyl silicone stationary phase fused silica capillary column (30 m×0.2 mm×0.5 μm film, HP5; Hewlett-Packard). Helium carrier gas was used at a flow of 1 ml/min. The injector was operated at 250° C., with 2 μl injected in the splitless mode, with a purge (60 ml/min helium) time of 0.6 min. The oven temperature was held at 189° C. for 0.5 min, then raised at 6° C./min to 250° C. where it was held for 17 min, then raised to 300° C. at 8° C./min to give a total run time of 35.42 min. […] The EI mass spectrometer (H-P 5970) was operated in the selected ion monitoring mode from 18 to 34 min. Ions monitored were TMS2-E2-d4 420, 288, 330; TMS2-E2 416, 285, 326; TMS3-2-OH-E2 504, 373; TMS3-4-OH-E2 504, 373, 325; TMS3-16α-OH-E2 345, 311, 504. The instrument was calibrated by simultaneous preparation of an 11-point calibration over the range […]/tube of each compound. […] Internal standard added prior to extraction compensated for deviation from 100% recovery.
(§3) Statistical Analysis. Kinetic parameters (Km and kcat) were determined by nonlinear regression analysis using the computer program GraphPad PRISM (San Diego, Calif.).

[3] = target: T1, CYP1B1; assay: Assay of CYP1B1 E2 hydroxylation activity; format: biochemical; details: text and FIG. 4; read-out: 2-OH-E2 hydroxylation Km
Procedure: as §1, §2, §3

Molecule	levels of depurinating DNA adducts versus E2-2,3Q and E1-2,3Q [1]	2-OH-Estradiol kcat [2]	2-OH-Estradiol kcat ([2]; listed as Wild type CYP1B1)	2-OH-Estradiol kcat ([2]; listed as wild type CYP1B1)	4-OH-Estradiol kcat [2]	4-OH-Estradiol kcat ([2]; listed as Wild type CYP1B1)	4-OH-Estradiol kcat ([2]; listed as wild type CYP1B1)	16a-OH-Esrradiol kcat [2]	16a-OH-Esrradiol kcat ([2]; listed as Wild type CYP1B1)	16a-OH-Esrradiol kcat ([2]; listed as wild type CYP1B1)	Km [3]
C[C@]12CC[C@@H]3C4=C(CC[C@H]3[C@@H]1CCC2=O)C(=O)C(=O)C=C4 [E1-3,4Q]	two to three orders of magnitude higher										
C[C@]12CC[C@@H]3C4=C(CC[C@H]3[C@@H]1CC[C@@H]2O)C(=O)C(=O)C=C4 [E2-3,4Q]	two to three orders of magnitude higher										
Wild type: purified recombinant His-tagged CYP1B1 with 48Arg, 119Ala, 432Val, 453Asn (protein) HHHHHHLLSVLATVHVGQRLLRQRRRQLRSAPPGPFAWPLIGNAAAVGQAAHLSFARLARRYGDVFQIRLGSCPIVVLNGERAIHQALVQQGSAFADRPAFASFRVVSGGRSMAFGHYSEHWKVQRRAAHSMMRNFFTRQPRSRQVLEGHVLSEARELVALLVRGSADGAFLDPRPLTVVAVANVMSAVCFGCRYSHDDPEFRELLSHNEEFGRTVGAGSLVDVMPWLQYFPNPVRTVFREFEQLNRNFSNFILDKFLRHCESLRPGAAPRDMMDAFILSAEKKAAGDSHGGGARLDLENVPATITDIFGASQDTLSTALQWLLLLFTRYPDVQTRVQAELDQVVGRDRLPCMGDQPNLPYVLAFLYEAMRFSSFVPVTIPHATTANTSVLGYHIPKDTVVFVNQWSVNHDPLKWPNPENFDPARFLDKDGLINKDLTSRVMIFSVGKRRCIGEELSKMQLFLFISILAHQCDFRANPNEPAKMNFSYGLTIKPKSFKVNVTLRESMELLDSAVQNLQAKETCQ		0.0317 ± 0.0017 s⁻¹	0.0317 ± 0.0017 s⁻¹	0.0317 ± 0.0017 s⁻¹	0.0733 ± 0.0067 s⁻¹	0.0733 ± 0.0067 s⁻¹	0.0733 ± 0.0067 s⁻¹	0.005 ± 0.00033 s⁻¹	0.005 ± 0.00033 s⁻¹	0.005 ± 0.00033 s⁻¹	34 ± 4 µM
